The values below come from US20210041439A1.

For data set [1], the target named is biotinylated phosphorylated cyclin E degron peptide. Nature of the data set: ALPHAscreen, 1536-well primary screen, n=518 plates.
For data set [2] the target is unchanged. Nature of the data set: ALPHAscreen, 384-well LOPAC screen; 25 nM FBW7 and 25 nM cyclin E phosphopeptide. (In general: Bead proximity is the source of the signal in Alpha formats.)
For data set [3] the target is unchanged. Nature of the data set: ALPHAscreen, 384-well; His-FBW7 on Ni-chelate acceptor beads, biotin-peptide on streptavidin donor beads.
The test system of data set [4] is cyclin E (substrate of the in vitro ubiquitylation assay).

In the case of “wild-type F-box/WD repeat-containing protein 7 (FBW7), recombinant dimeric Skp1-FBW7 complex (from UniProt P63208 1-163) (enzyme)”, the signal-to-background (S:B) (Wt-FBW7+pCycE-peptide high control versus Wt-FBW7+unphosphorylated CycE peptide low control) in data set [1] was 69.3. Moreover, the S:B ratio (wt-FBW7 high control versus mutant FBW7 low control, both with cyclin E phosphopeptide) in data set [2] came to 14.6. The substance also showed a fold ALPHA signal, phosphorylated versus unphosphorylated cyclin E degron peptide in data set [3] of 100 fold. Take “mutant FBW7 R505L (FBW7^ARG), recombinant dimeric Skp1-FBW7 complex”: the “reconstituted in vitro Cyclin E polyubiquitylation assay” value in data set [4] was “FBW7^ARG was inactive”. On the same count and under the same terms, with “wild-type F-box/WD repeat-containing protein 7 (FBW7), recombinant dimeric Skp1-FBW7 complex” the entry was “wt-FBW7 was highly active”.
